Series [1] deals with PPARalpha (rat liver nuclear extract);RXRalpha (rat liver nuclear extract) (rat;rat). Description: EMSA. Particulars: OEA-treated rats; 10 mM HEPES pH 7.9, 150 mM KCl, 1 mM DTT, 0.2 ug/uL poly(dI-C), 5% glycerol; 15 min on ice then 15 min with probe at room temperature; 8% native PAGE, 0.5x TBE. In general terms: Mobility shift assays separate free from complexed probe on a gel.

The test system is the same in series [2]. In words: EMSA with anti-PPARalpha supershift. To be noted: OEA-treated rats; anti-PPARalpha antibody; 10 mM HEPES pH 7.9, 150 mM KCl, 1 mM DTT, 0.2 ug/uL poly(dI-C), 5% glycerol; 15 min on ice then 15 min with probe at room temperature; 8% native PAGE, 0.5x TBE.

A value given as a limit tells only on which side of the number the result lay.

Substance ACOX-PPRE registered a binding signal (fold vs vehicle) in series [1] of 2. Moreover, the binding signal (fold vs vehicle (supershifted complex)) in series [2] is more than 3.

These data come from article PMC3961330.
